The source of these data is publication PMC10847457 (Cell Discovery, 2024).

B1: PW5-535 (antibody, V domains shown)
VH: EVRLVESGGGLVQPGGSLRLSCAASGFTFRNYDIHWVRQTTGKGLEWVSAVGTSGDTYYLDSVKGRFTISREDAKKSVYLQMNSLRAGDTAMYYCVRGDASPDNIYYYMDVWGTGTRVIVSS
VL: DIQVTQSPSPLSASVGDRVTITCRASQTIGKYLNWYHQIPGKAPKLLISAASTLHSGVPSRFSGRGSGTDFTLTISSLQPEDFGTYYCQQSYSSPPWTFGQGTKVEIK
B2: PW5-570 (antibody, V domains shown)
VH: QMQLVQSGPEVRKPGTSVKVSCRASVFSFDTSAVQWVRQARGQPLEWIGWIVFGSSNTDYAQKFRDRVTITGDMSTGTAYMELSSLRSEDTAVYYCAAPHCNRTNCHDGFDIWGQGTVVTVSS
VL: EIVLTQSPGTLSLSPGERATLSCRASQSVRSGYLGWYQQKPGQAPRLLIYGAYNRATGIPDRFRGSGSGTDFTLTISRLEPEDFVVYYCQQYDRSPWTFGQGTKVEIK
notes: also called PW5-570 IgG; PW5-570 immunoglobulin G
B3: PW5-5 (antibody, V domains shown)
VH: QVQLVQSGAEVKKPGASVKVSCKTSGYTFTDHYMYWVRQAPGQGLEWMGVINPDAGSVTYAQKFQGRVTMTSDTSTSTVYMELSSLRSEDTAVYYCARDLFFIPAANSFDYWGQGTLVTVSS
VL: EIVLTQSPATLSLSPGERATLSCRASQSVSSYLAWYQQKPGQAPRLLIYDATNRATGIPARFSGSGSGTDFTLTISSLEPEDFAVYYCQHRSNWPRMFTFGQGTKLEIK
notes: also called PW5-5 IgG; IgG PW5-5

In this assay the target is SARS-CoV-2 S trimer (stabilized soluble S2P) (SARS-CoV-2, ancestral (WT, Wuhan-Hu-1 …, UniProt P0DTC2, stabilised)). Briefly: ELISA. To be noted: both partners purified.
Regarding B1, the binding result is on record as “binds”.
For B2, the binding result is “binds”.
Take B3: the binding result is listed as “binds”.
